# Source: patent publication US8129349B2, “Treatment of disease by inducing cell apoptosis” (The Regents of the University of California, priority 2000, dated 2012)
# B1: C/EBPβ-Glu^217: modified murine C/EBPβ with mutation of Thr^217 to glutamic acid (SEQ ID NO:4), phosphorylation mimic (protein, listed as Mus musculus)
# chain: MHRLLAWDAACLPPPPAAFRPMEVANFYYEPDCLAYGAKAARAAPRAPAAEPAIGEHERAIDFSPYLEPLAPAADFAAPAPAHHDFLSDLFADDYGAKPSKKPADYGYVSLGRAGAKAAPPACFPPPPPAALKAEPGFEPADCKRADDAPAMAAGFPFALRAYLGYQATPSGSSGSLSTSSSSSPPGTPSPADAKAAPAACFAGPPAAPAKAKAKKZVDKLSDEYKMRRERNNIAVRKSRDKAKMRNLETQHKVLELTAENERLQKKVEQLSRELSTLRNLFKQLPEPLLASAGHC
# What was measured:
# procaspase 8 = procaspase 8 (Homo sapiens, UniProt Q14790); assay: Co-immunoprecipitation of purified recombinant procaspase 8 with recombinant C/EBPβ peptides; type: binding; design: 21 amino acid linker (vector-derived) (N); purchased Alexis Biochemicals 201-041-C005; conditions: peptides 200 μM, procaspase 8 0.12 μg, quantitated by densitometry
# procaspase 8, sequence (Q14790 217-479): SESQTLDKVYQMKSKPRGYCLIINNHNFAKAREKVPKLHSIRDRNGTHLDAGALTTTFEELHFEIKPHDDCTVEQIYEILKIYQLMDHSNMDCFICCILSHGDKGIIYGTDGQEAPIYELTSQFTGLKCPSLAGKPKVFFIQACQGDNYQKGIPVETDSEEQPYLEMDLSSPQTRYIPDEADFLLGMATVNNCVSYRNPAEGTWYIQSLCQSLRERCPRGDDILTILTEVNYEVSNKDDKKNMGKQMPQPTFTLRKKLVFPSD
# Protocol: (§1) FIG. 5 provides results showing the direct association of C/EBPβ-Glu^217 with procaspases 1 and 8. […] Enzyme activity was measured in the absence (control) or presence of C/EBPβ peptides (200 μM) for 2 h, using a procaspases 1 (1U) (not shown) and 8 (0.2 μg) activity assay. Values are presented as the mean±one half the range of duplicates. Panel C provides results for cells cultured on a collagen type I matrix and incubated with the indicated cell permeant, purified synthetic N-acetyl, C-aldehyde C/EBPβ tetra-peptides (10 μM) or with recombinant C/EBPβ-HA peptides as indicated, together with the Chariot reagent (Active Motif) for 4 h. Control cells were incubated without peptides (P<0.05 for all peptides containing Ala^217).
# (§2) Purified recombinant C/EBPβ peptides, expressed as known in the art (See, Descombes et al., supra; and Buck et al. (1994), supra), and purified synthetic N-acetyl, C-aldehyde tetrapeptides (200 μM) (American Peptide Company) were assayed for their ability to inhibit the activity of purified human recombinant caspases 1 (catalogue # 201-056) and 8 (catalogue # 201-041-C005) (Alexis Biochemicals). The sequence of caspase 8 includes Ser217 through Asp479 cloned into an expression vector containing a 21 amino acid linker at the N-terminus. Thus, the prodomain (first 220 amino acids) is essentially missing. […] Caspase activity was determined by the release of the p-nitroaniline colorimetric (Alexis Biochemicals) substrate for caspase 1 (catalogue # 260-026) or 8 (catalogue # 260-045) within the linear part of the kinetic assay (Thornberry et al. (1997), supra; Stennicke and Salvesen, supra). […]
# (§3) To delineate the role of C/EBPβ on the activation of procaspases 1 and 8, the self-activation of recombinant procaspases 1 and 8 was induced in vitro (Wilson et al., supra; Margolin et al., supra; and Earnshaw et al., supra), and the effect of purified recombinant C/EBPβ peptides, produced as described previously (Descombes et al., supra; and Buck et al., (1994), supra) on this process was determined. […]
# procaspase 1 = molecular target: T1, procaspase 1 (Homo sapiens, UniProt P29466); assay: Co-immunoprecipitation of purified recombinant procaspase 1 with recombinant C/EBPβ peptides; type: binding; conditions: peptides 200 μM, procaspase 1 0.6 U, quantitated by densitometry
# T1 construct: purchased Alexis Biochemicals 201-056
# T1 sequence (P29466 1-404): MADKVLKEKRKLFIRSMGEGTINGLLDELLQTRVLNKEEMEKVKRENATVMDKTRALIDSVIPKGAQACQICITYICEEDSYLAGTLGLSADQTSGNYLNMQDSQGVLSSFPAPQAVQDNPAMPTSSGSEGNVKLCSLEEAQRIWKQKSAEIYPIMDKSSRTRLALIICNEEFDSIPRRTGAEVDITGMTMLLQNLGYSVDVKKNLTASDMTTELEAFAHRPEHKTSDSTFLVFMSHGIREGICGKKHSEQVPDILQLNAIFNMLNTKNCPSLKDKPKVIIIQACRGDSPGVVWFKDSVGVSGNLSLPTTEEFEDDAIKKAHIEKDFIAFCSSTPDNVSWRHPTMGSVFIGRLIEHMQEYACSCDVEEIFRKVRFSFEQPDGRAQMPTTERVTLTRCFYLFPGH
# Protocol: as §1
# Purified recombinant C/EBPβ peptides, expressed as known in the art (See, Descombes et al., supra; and Buck et al. (1994), supra), and purified synthetic N-acetyl, C-aldehyde tetrapeptides (200 μM) (American Peptide Company) were assayed for their ability to inhibit the activity of purified human recombinant caspases 1 (catalogue # 201-056) and 8 (catalogue # 201-041-C005) (Alexis Biochemicals). The sequence of caspase 8 includes Ser217 through Asp479 cloned into an expression vector containing a 21 amino acid linker at the N-terminus. Thus, the prodomain (first 220 amino acids) is essentially missing. The fragment is cleaved at Asp385 and the active caspases are essentially identical to those identified in apoptotic cells (Stennicke and Salvesen, Meth. Enzymol., 322:91-100 (1997)). Caspase activity was determined by the release of the p-nitroaniline colorimetric (Alexis Biochemicals) substrate for caspase 1 (catalogue # 260-026) or 8 (catalogue # 260-045) within the linear part of the kinetic assay (Thornberry et al. (1997), supra; Stennicke and Salvesen, supra). Caspase 1 and 8 activity in cells was performed with colorimetric kits (catalogues # 850-211-K and 850-221-K) as described by the manufacturer (Alexis) (See also, Thornberry et al. (1997), supra). The caspase 8 inhibitor IETD was from Calbiochem (Catalogue # 218773).
# as §3, with “determined. Consistent with the in vivo results described above, C/EBPβ-HA-Glu^217 and C/EBPβ 216-253-HA-Glu^217, but not C/EBPβ-HA-Ala^217, peptides associated with procaspases 1 and 8 (See, FIG. 5, Panel A).” for “determined.”
# caspase 1 = molecular target: T2, caspase 1 (Homo sapiens, UniProt P29466); assay: In vitro self-activation of recombinant caspase 1; type: biochemical; conditions: peptides 200 μM, 2 h, procaspase 1 (1U)
# T2 construct: purchased Alexis Biochemicals 201-056
# T2 sequence (P29466 120-404): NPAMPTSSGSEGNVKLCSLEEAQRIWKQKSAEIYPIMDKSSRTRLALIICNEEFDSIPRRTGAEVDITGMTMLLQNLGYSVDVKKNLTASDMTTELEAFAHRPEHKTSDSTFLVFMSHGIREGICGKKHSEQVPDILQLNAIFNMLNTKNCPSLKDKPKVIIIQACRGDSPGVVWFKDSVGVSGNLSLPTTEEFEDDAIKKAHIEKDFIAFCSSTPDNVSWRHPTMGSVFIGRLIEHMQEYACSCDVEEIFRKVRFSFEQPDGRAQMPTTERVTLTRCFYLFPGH
# Protocol: as §1, §2, §3
molecule,measurement,setting,value
B1,"Co-immunoprecipitation of procaspase 8, fold more than the Ala^217 peptides",procaspase 8,12 fold
same,"Co-immunoprecipitation of procaspase 1, fold more than the Ala^217 peptides",procaspase 1,7 fold
same,Inhibition of in vitro self-activation of caspase 1,caspase 1,inhibited the in vitro self-activation
